According to patent publication US20160333065A1 (ACADEMISCH ZIEKENHUIS LEIDEN H O D N LUMC, published 2016):
Each block holds one binder with its values, some of them ahead of it.

Experiments:
HLA-B8 (B*0801) [1] = molecular target: T1, HLA-B8 (B*0801) (human); experiment: competition vs FLRGRAC(FI)GL on stripped B-LCL, FACS
T1 construct: HLA class I on acid-stripped EBV-transformed B cells (B-LCL)

HLA-B7 (B*0702) [2] = molecular target: T2, HLA-B7 (B*0702) (human); experiment: competition vs APAPAPC(FI)WPL on stripped B-LCL, FACS
T2 construct: HLA class I on acid-stripped EBV-transformed B cells (B-LCL)

HLA-B8 (B*0801) [3] = molecular target: T3, HLA-B8 (B*0801) (human); experiment: cellular competition binding assay on acid-stripped B-LCL Vavy, flow cytometry; competitor Fl-labeled reference peptide FLRGRAC(Fl)GL
T3 construct: MHC class I molecule on mild-acid-stripped EBV-transformed B cells (Vavy)

HLA-B62 (B*1501) = molecular target: T4, HLA-B62 (B*1501) (human); experiment: cellular competition binding assay on acid-stripped B-LCL BSM, flow cytometry; competitor Fl-labeled reference peptide YLGEFSC(Fl)TY
T4 construct: MHC class I molecule on mild-acid-stripped EBV-transformed B cells (BSM)

HLA-B35 (B*3501) = molecular target: T5, HLA-B35 (B*3501) (human); experiment: cellular competition binding assay on acid-stripped B-LCL BVR, flow cytometry; competitor Fl-labeled reference peptide NPDIVC(Fl)YQY
T5 construct: MHC class I molecule on mild-acid-stripped EBV-transformed B cells (BVR)

HLA-B60 (B*4001) = molecular target: T6, HLA-B60 (B*4001) (human); experiment: cellular competition binding assay on acid-stripped B-LCL DKB, flow cytometry; competitor Fl-labeled reference peptide KESTC(Fl)HLVL
T6 construct: MHC class I molecule on mild-acid-stripped EBV-transformed B cells (DKB)

HLA-A3 (A*0301) = molecular target: T7, HLA-A3 (A*0301) (human); experiment: cellular competition binding assay on acid-stripped B-LCL EKR, flow cytometry; competitor Fl-labeled reference peptide KVFPC(Fl)ALINK
T7 construct: MHC class I molecule on mild-acid-stripped EBV-transformed B cells (EKR)

HLA-B7 (B*0702) [4] = molecular target: T8, HLA-B7 (B*0702) (human); experiment: cell competition vs APAPAPC(FI)WPL, stripped JY B-LCL, FACS
T8 construct: Acid-stripped B-LCL

HLA-B8 (B*0801) [5] = molecular target: T9, HLA-B8 (B*0801) (human); experiment: cell competition vs FLRGRAC(FI)GL, stripped Vavy B-LCL, FACS
T9 construct: Acid-stripped B-LCL

IC50 (HLA-B8 (B*0801) [1]): < 1000 nM
IC50 (HLA-B7 (B*0702) [2]): < 1000 nM
Binder: RPRRWKLQVL [PRAME 113-122 RPRRWKLQVL]

IC50 (HLA-B8 (B*0801) [3]): < 1000 nM
Binder: YLHARLREL [PRAME 462-470 YLHARLREL]

IC50 (HLA-B62 (B*1501)): 1660 nM
Binder: VLYPVPLESY [PRAME 439-448 VLYPVPLESY]

IC50 (HLA-B35 (B*3501)): 320 nM
Binder: EPILCPCFM [PRAME 499-507 EPILCPCFM]

IC50 (HLA-B60 (B*4001)): < 1000 nM
Binder: YEDIHGTLHL [PRAME 448-457 YEDIHGTLHL]

IC50 (HLA-A3 (A*0301)): 1000 nM
Binder: RLAYLHARLR [PRAME 459-468 RLAYLHARLR]

IC50 (HLA-B7 (B*0702) [4]): < 1000 nM
IC50 (HLA-B8 (B*0801) [5]): < 1000 nM
Binder: RPRRWKLQVL [PRAME peptide RPRRWKLQVL]
